From patent US20210032331A1 (PHANES THERAPEUTICS, published 2021)

Tests used:
[1] = target: T1, BG29 (human IgG4 heavy chain and kappa light chain chimeric); assay: ELISA peptide competition: peptide preincubated with chimeric IgG4 BG29, competitor hLAG3-mFc; peptide at 200-fold hLAG3-mFc; capture on anti-human IgG, anti-mouse IgG-HRP
T1 construct: Chimeric: mouse VH and VL with human IgG4 heavy chain and kappa light chain constant regions; also called chimeric BG29
Procedure: (§1) FIGS. 5A-5D show the effect of competition peptides on LAG-3 binding to anti-LAG-3 mAbs. […] B5/IgG4 was preincubated with a competition peptide for 30 minutes. Then human LAG-3 extracellular domain (ECD) fused to mouse Fc (hLAG3-mFc) was added (the final peptide concentration was 600-fold that of hLAG3-mFc) and the mixture was incubated for 60 minutes before being added to an ELISA plate coated with anti-human IgG. The incubation was carried out at 4° C. overnight. After washing, the hLAG3-mFc bound to the immobilized B5/IgG4 on the ELISA plate was detected by adding anti-mouse IgG conjugated to horseradish peroxidase (HRP) and incubating for 60 minutes. Then, after washing, the ELISA was developed using One-step Detection Solution and measured as the absorbance at 450 nm.
(§2) Anti-human IgG in carbonate coating buffer was coated on an ELISA plate at 4° C. (50 μL/well at 1 μg/mL) overnight. In each well of a separate plate, a chimeric version of a given anti-LAG-3 mAb (50 μL/well at 1.4 nM) and a competition peptide (50 μL/well at various concentrations as indicated in the figures) were mixed and incubated for 30 minutes at room temperature. Then human LAG-3 extracellular domain (ECD) fused to mouse Fc (hLAG3-mFc) was added to each well (50 μL/well at 2 nM) and the final mixture was incubated at room temperature for 60 minutes before added to the ELISA plate (50 μL/well) for another 60-minute incubation. The final incubation after adding the mixture to the ELISA plate was also performed at 4° C. overnight in some assays. The plate was washed and the binding of hLAG3-mFc to the immobilized anti-LAG-3 mAb was detected by adding anti-mouse IgG conjugated to horseradish peroxidase ([…]) (ThermoFisher Scientific, Cat#: A16084; Waltham, Mass.) and incubating for 60 minutes.

B7/IgG4 = target: T2, B7/IgG4; assay: ELISA peptide competition: peptide preincubated with B7/IgG4, competitor hLAG3-mFc; peptide at 600-fold hLAG3-mFc; final incubation 60 min at room temperature; anti-mouse IgG-HRP
T2 construct: Chimeric: mouse VH and VL with human IgG4 heavy chain and kappa light chain constant regions; also called B7 (human IgG4 heavy chain and kappa light chain chimeric)
Procedure: B5/IgG4 was preincubated with a competition peptide for 30 minutes. Then human LAG-3 extracellular domain (ECD) fused to mouse Fc (hLAG3-mFc) was added (the final peptide concentration was 600-fold that of hLAG3-mFc) and the mixture was incubated for 60 minutes before being added to an ELISA plate coated with anti-human IgG. The incubation was carried out at 4° C. overnight. After washing, the hLAG3-mFc bound to the immobilized B5/IgG4 on the ELISA plate was detected by adding anti-mouse IgG conjugated to horseradish peroxidase (HRP) and incubating for 60 minutes. Then, after washing, the ELISA was developed using One-step Detection Solution and measured as the absorbance at 450 nm.
The assay condition is the same as in FIG. 5A except that the final incubation of the mAb, the competition peptide, and hLAG3-mFc on the ELISA plate was performed at room temperature for 60 minutes instead of incubation at 4° C. overnight.
Anti-human IgG in carbonate coating buffer was coated on an ELISA plate at 4° C. (50 μL/well at 1 μg/mL) overnight. In each well of a separate plate, a chimeric version of a given anti-LAG-3 mAb (50 μL/well at 1.4 nM) and a competition peptide (50 μL/well at various concentrations as indicated in the figures) were mixed and incubated for 30 minutes at room temperature. Then human LAG-3 extracellular domain (ECD) fused to mouse Fc (hLAG3-mFc) was added to each well (50 μL/well at 2 nM) and the final mixture was incubated at room temperature for 60 minutes before added to the ELISA plate (50 μL/well) for another 60-minute incubation.

B5/IgG4 = target: T3, B5/IgG4; assay: ELISA peptide competition: peptide preincubated with B5/IgG4, competitor hLAG3-mFc; peptide at 600-fold hLAG3-mFc; capture on anti-human IgG, anti-mouse IgG-HRP
T3 construct: Chimeric: mouse VH and VL with human IgG4 heavy chain and kappa light chain constant regions; also called B5 (human IgG4 heavy chain and kappa light chain chimeric)
Procedure: as §1, §2

[2] = target: T4, B12 (human IgG1 heavy chain and kappa light chain chimeric); assay: ELISA peptide competition: peptide preincubated with chimeric IgG1 B12, competitor hLAG3-mFc; peptide at 600-fold hLAG3-mFc; capture on anti-human IgG, anti-mouse IgG-HRP
T4 construct: Chimeric: mouse VH and VL with human IgG1 heavy chain and kappa light chain constant regions
Procedure: as §1, §2

human LAG-3(ECD)-mFc = target: T5, human LAG-3(ECD)-mFc (human, UniProt P18627 23-450); assay: FACS blocking assay: mAb preincubated with LAG-3(ECD)-mFc (1 µg/mL), blocked ligand MHC class II on Daudi cells, PE anti-mouse Fc
T5 construct: also called hLAG3-mFc; human LAG-3 extracellular domain (ECD) fused to mouse Fc; not shown: mouse Fc
T5 sequence: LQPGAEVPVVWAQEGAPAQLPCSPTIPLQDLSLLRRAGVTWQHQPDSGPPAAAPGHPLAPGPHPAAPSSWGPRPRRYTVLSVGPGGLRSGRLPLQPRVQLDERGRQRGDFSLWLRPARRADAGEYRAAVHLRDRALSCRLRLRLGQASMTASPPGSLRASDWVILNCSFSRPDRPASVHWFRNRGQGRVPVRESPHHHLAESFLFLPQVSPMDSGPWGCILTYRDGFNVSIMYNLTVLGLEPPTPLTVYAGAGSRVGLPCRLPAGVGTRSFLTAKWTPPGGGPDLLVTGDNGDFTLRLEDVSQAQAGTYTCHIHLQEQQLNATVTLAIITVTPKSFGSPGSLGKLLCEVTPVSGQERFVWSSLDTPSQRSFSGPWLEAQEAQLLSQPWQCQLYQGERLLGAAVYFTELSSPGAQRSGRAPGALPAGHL
Procedure: FIGS. 4A-4D show inhibition of human LAG-3 binding to MHC class II molecules by select anti-LAG-3 mAbs. An in vitro binding assay was performed using recombinant LAG-3(ECD)-mFc and Daudi cells which express human MHC class II molecules. […] The binding of LAG-3(ECD)-mFc to Daudi cells in the presence of anti-LAG-3 mAbs or a control mAb was analyzed by FACS.
Human Daudi cells were cultured in RPMI+10% FBS. Human LAG-3(ECD)-mFc protein (human LAG-3 ECD fused to mouse Fc) at 1 μg/ml final concentration was incubated with purified mouse, humanized, or chimeric anti-LAG-3 mAbs at various concentrations for 15 minutes at 4° C. The mixture was then added to 100,000 human Daudi cells in a 96-well round bottom plate, mixed and incubated for 15 minutes on ice. Cells were then centrifuged at 1,000 rpm for 5 minutes and washed with FACS buffer (PBS supplemented with 5% BSA) three times. The cells were then incubated with PE-conjugated goat anti-mouse Fc polyclonal antibodies on ice for 15 minutes, washed with FACS buffer three times and then resuspended in FACS buffer containing 0.1 μg/ml PI (propidine iodine) for live/dead cell gating. Cells were then run through the FACS Caliber instrument and the data were analyzed by the Flowjo software. Results of the inhibition of LAG-3 binding to Daudi cells by chimeric mAbs B1C, B3C, B4C, BSC, B9C, and B11C are shown in FIG. 4B.

[3] = target: T6, full-length human LAG-3 on stably transfected CHO-S cells (human, UniProt P18627 23-525); assay: FACS, CHO-S cells stably transfected with full-length human LAG-3, PE anti-mouse IgG
T6 construct: also called hLAG3
T6 sequence: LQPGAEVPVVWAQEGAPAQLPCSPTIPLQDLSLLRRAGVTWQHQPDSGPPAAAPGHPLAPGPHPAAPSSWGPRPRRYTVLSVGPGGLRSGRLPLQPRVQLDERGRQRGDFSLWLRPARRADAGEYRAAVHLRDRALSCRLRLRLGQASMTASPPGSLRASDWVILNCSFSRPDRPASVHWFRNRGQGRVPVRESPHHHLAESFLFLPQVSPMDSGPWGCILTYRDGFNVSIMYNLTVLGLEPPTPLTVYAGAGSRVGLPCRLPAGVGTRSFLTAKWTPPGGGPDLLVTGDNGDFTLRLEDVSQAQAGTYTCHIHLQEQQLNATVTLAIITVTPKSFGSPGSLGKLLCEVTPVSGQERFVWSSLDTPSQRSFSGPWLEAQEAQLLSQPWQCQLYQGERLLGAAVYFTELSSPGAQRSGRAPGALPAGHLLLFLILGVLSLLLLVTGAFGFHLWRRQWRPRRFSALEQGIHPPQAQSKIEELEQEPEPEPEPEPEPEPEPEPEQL
Procedure: CHO-S cells stably transfected with full-length human LAG-3 were transferred to a 96-well plate. Around 200,000 cells were incubated with either purified chimeric anti-LAG-3 mAbs (variable regions of mouse mAbs fused to the constant regions of human IgG1 heavy chain and kappa light chain, respectively) or purified mouse anti-LAG-3 mAbs from hybridoma supernatants at various concentrations for 15 minutes at 4° C. Cells were then centrifuged at 1,000 rpm for 5 minutes and washed with FACS buffer (PBS supplemented with 5% BSA) three times. For the cells treated with the chimeric antibodies, the cells were then incubated with PE-conjugated goat anti-human IgG polyclonal antibodies and incubated on ice for another 15 minutes; for the cells treated with mouse mAbs, the cells were incubated with PE-conjugated goat anti-mouse IgG polyclonal antibodies and incubated on ice for another 15 minutes. Cells were then washed with FACS buffer three times and then resuspended in FACS buffer containing 0.1 μg/ml PI (propidium iodide) for live/dead cell gating. Cells were then run through the FACS Caliber instrument and the data were analyzed by the Flowjo software. Results of the FACS binding analysis of the mouse anti-LAG-3 mAbs (B1, B2, B3, B4, B5, B6, B7, B8, B9, B10, B11, B12, and B13) are provided in FIGS. 1A-1B.

T3 sequence (VH, as listed by the source, chain 1 of 2): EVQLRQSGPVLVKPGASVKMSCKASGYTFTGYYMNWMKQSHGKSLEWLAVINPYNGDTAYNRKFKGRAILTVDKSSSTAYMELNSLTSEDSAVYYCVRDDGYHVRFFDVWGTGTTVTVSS
T3 sequence (VL, as listed by the source, chain 2 of 2): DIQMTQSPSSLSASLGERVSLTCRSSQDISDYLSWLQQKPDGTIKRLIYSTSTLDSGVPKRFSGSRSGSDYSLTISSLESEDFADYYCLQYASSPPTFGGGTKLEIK
T2 sequence (VH, as listed by the source, chain 1 of 2): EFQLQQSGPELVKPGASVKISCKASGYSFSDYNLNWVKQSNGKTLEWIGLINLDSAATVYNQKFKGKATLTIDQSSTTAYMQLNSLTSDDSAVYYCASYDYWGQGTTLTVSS
T2 sequence (VL, as listed by the source, chain 2 of 2): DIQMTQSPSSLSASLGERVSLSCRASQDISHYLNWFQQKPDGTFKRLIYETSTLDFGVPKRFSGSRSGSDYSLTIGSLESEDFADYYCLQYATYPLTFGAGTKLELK

Row | Binder | binding result [1] | binding result (B5/IgG4) | EC50 (read off the curve) [3] [µg/mL] | further results
1 | GPPAAAPGHPLAPGPHPAAPSSWGPRPRRY (also called peptide 1-30) [1-30] | binds | – | – | binding result (B7/IgG4): binds
2 | GPPAAAPGHPLAP (also called peptide 1-13) [1-13] | binds | binds | – | –
3 | GPPAAAPGHPLAPG (also called peptide 1-14) [1-14] | binds | binds | – | binding result [2]: binds
4 | PPAAAPGHPLAPG (also called peptide 2-14) [2-14] | binds | binds | – | binding result [2]: binds
5 | B12 (antibody, V domains shown, Mouse mAb from hybridoma; also called mouse anti-LAG-3 mAb B12) VH: EVKLLESGGSLVQPGGSLKLSCAASGFDFSRYWMSWVRQAPGKGLEWIGEINPDSSTINYTPSLRDEFIISRDNAKNTLFLQMSKVISEDTALYYCARITSGYYFDYWGQGTTLTVSS VL: DVVMTQTPLSLPVSLGDQASISCRSSQTIVYSNGNTYLYWYLQKPGQSPKLLIYRVSNRFPGVPDRFSGSGSGTDFTLKISGVEAEDMGVYYCFQGTHVPFTFGSGTKLEMK | – | – | – | binding result (human LAG-3(ECD)-mFc): binds; binding result [3]: binds
6 | BG27 (antibody, V domains shown, Mouse mAb from hybridoma; also called mouse anti-LAG-3 mAb BG27) VH: QAYLQQSGADLVRPGASVKMSCKASGYTFTSYDMHWVKQTPRQGLEWIGAIYPGNGDASYNQKFKGKATLTVDKASSTAFMQLSSLTSEDSAVYFCARGDYGNYVWFAYWGQGTLVTVSA VL: DVVMTQTPLSLPVSLGDQASISCRSSQTIVHSNRYTYLEWYLQKPGQSLKLLIYGVSNRFSGVPDRFSGSGSGTDFTLKISRVEAEDMGVYYCFQGTHVPPTFGAGTKLELK | – | – | ~0.3 | –
7 | BG29 (antibody, V domains shown, Mouse mAb from hybridoma; also called mouse anti-LAG-3 mAb BG29) VH: QIQLQQSGPEVVKPGASVRISCKASGYTFSDYHINWVKQKPGQGLEWIGWIYPGRGDPEYNEKFKGKATLTVDRSASTAYMQLSSLTSEDTSVYFCEIYYGNYIDYWGQGTTLTVSS VL: DIVMTQAAPSVPVTPGESVSISCRSSKSLLHSDGKTYLYWFLQRPGQSPQRLIYYMSNLASGVPDRFSGRGSGTDFTLRISRVEAEDVGVYYCMQSLEYPWTFGGGTKLEIK | – | – | ~0.2 | –
8 | BG33 (antibody, V domains shown, Mouse mAb from hybridoma; also called mouse anti-LAG-3 mAb BG33) VH: QIQLQQSGPEVVKPGASVKISCKASGYTFSDYHINWVKQKPGQGLEWIGWIYPGRGNPEYNEKFKGKATLTVDRSANTAYMQLSSLTSEDSSVYFCEIYYGNYLDYWGQGTTLTVSS VL: DIVMTQAAPSVPVTPGESVSISCRSSKSLLHSDGKTYLYWFLQRPGQSPQRLIYYMSNLASGVPDRFSGRGSGTDFTLRISRVEAEDVGVYYCMQSLEYPWTFGGGTKLEIK | – | – | ~0.4 | –
